What was measured:
Conditions in all cases: glycan lost; control: wild-type CD133
[1] = immunofluorescence with ER dye, HEK293T
[2] = surface flow cytometry, HEK293T and HepG2
[3] = anti-CD133 western blot, HEK293T lysates

B1: CD133 (prominin-1): N206Q (protein)
parent chain: MALVLGSLLLLGLCGNSFSGGQPSSTDAPKAWNYELPATNYETQDSHKAGPIGILFELVHIFLYVVQPRDFPEDTLRKFLQKAYESKIDYDKPETVILGLKIVYYEAGIILCCVLGLLFIILMPLVGYFFCMCRCCNKCGGEMHQRQKENGPFLRKCFAISLLVICIIISIGIFYGFVANHQVRTRIKRSRKLADSNFKDLRTLLNETPEQIKYILAQYNTTKDKAFTDLNSINSVLGGGILDRLRPNIIPVLDEIKSMATAIKETKEALENMNSTLKSLHQQSTQLSSSLTSVKTSLRSSLNDPLCLVHPSSETCNSIRLSLSQLNSNPELRQLPPVDAELDNVNNVLRTDLDGLVQQGYQSLNDIPDRVQRQTTTVVAGIKRVLNSIGSDIDNVTQRLPIQDILSAFSVYVNNTESYIHRNLPTLEEYDSYWWLGGLVICSLLTLIVIFYYLGLLCGVCGYDRHATPTTRGCVSNTGGVFLMVGVGLSFLFCWILMIIVVLTFVFGANVEKLICEPYTSKELFRVLDTPYLLNEDWEYYLSGKLFNKSKMKLTFEQVYSDCKKNRGTYGTLHLQNSFNISEHLNINEHTGSISSELESLKVNLNIFLLGAAGRKNLQDFAACGIDRMNYDSYLAQTGKSPAGVNLLSFAYDLEAKANSLPPGNLRNSLKRDAQTIKTIHQQRVLPIEQSLSTLYQSVKILQRTGNGLLERVTRILASLDFAQNFITNNTSSVIIEETKKYGRTIIGYFEHYLQWIEFSISEKVASCKPVATALDTAVDVFLCSYIIDPLNLFWFGIGKATVFLLPALIFAVKLAKYYRRMDSEDVYDDVETIPMKNMENGNNGYHKDHVYGIHNPVMTSPSQH
no change: localisation_or_trafficking [1] | localisation_or_trafficking [2] | expression_or_secretion [3]

B2: CD133 (prominin-1): N395Q (protein)
parent chain: MALVLGSLLLLGLCGNSFSGGQPSSTDAPKAWNYELPATNYETQDSHKAGPIGILFELVHIFLYVVQPRDFPEDTLRKFLQKAYESKIDYDKPETVILGLKIVYYEAGIILCCVLGLLFIILMPLVGYFFCMCRCCNKCGGEMHQRQKENGPFLRKCFAISLLVICIIISIGIFYGFVANHQVRTRIKRSRKLADSNFKDLRTLLNETPEQIKYILAQYNTTKDKAFTDLNSINSVLGGGILDRLRPNIIPVLDEIKSMATAIKETKEALENMNSTLKSLHQQSTQLSSSLTSVKTSLRSSLNDPLCLVHPSSETCNSIRLSLSQLNSNPELRQLPPVDAELDNVNNVLRTDLDGLVQQGYQSLNDIPDRVQRQTTTVVAGIKRVLNSIGSDIDNVTQRLPIQDILSAFSVYVNNTESYIHRNLPTLEEYDSYWWLGGLVICSLLTLIVIFYYLGLLCGVCGYDRHATPTTRGCVSNTGGVFLMVGVGLSFLFCWILMIIVVLTFVFGANVEKLICEPYTSKELFRVLDTPYLLNEDWEYYLSGKLFNKSKMKLTFEQVYSDCKKNRGTYGTLHLQNSFNISEHLNINEHTGSISSELESLKVNLNIFLLGAAGRKNLQDFAACGIDRMNYDSYLAQTGKSPAGVNLLSFAYDLEAKANSLPPGNLRNSLKRDAQTIKTIHQQRVLPIEQSLSTLYQSVKILQRTGNGLLERVTRILASLDFAQNFITNNTSSVIIEETKKYGRTIIGYFEHYLQWIEFSISEKVASCKPVATALDTAVDVFLCSYIIDPLNLFWFGIGKATVFLLPALIFAVKLAKYYRRMDSEDVYDDVETIPMKNMENGNNGYHKDHVYGIHNPVMTSPSQH
no change: localisation_or_trafficking [1] | localisation_or_trafficking [2] | expression_or_secretion [3]

B3: CD133 (prominin-1): N274Q (protein)
parent chain: MALVLGSLLLLGLCGNSFSGGQPSSTDAPKAWNYELPATNYETQDSHKAGPIGILFELVHIFLYVVQPRDFPEDTLRKFLQKAYESKIDYDKPETVILGLKIVYYEAGIILCCVLGLLFIILMPLVGYFFCMCRCCNKCGGEMHQRQKENGPFLRKCFAISLLVICIIISIGIFYGFVANHQVRTRIKRSRKLADSNFKDLRTLLNETPEQIKYILAQYNTTKDKAFTDLNSINSVLGGGILDRLRPNIIPVLDEIKSMATAIKETKEALENMNSTLKSLHQQSTQLSSSLTSVKTSLRSSLNDPLCLVHPSSETCNSIRLSLSQLNSNPELRQLPPVDAELDNVNNVLRTDLDGLVQQGYQSLNDIPDRVQRQTTTVVAGIKRVLNSIGSDIDNVTQRLPIQDILSAFSVYVNNTESYIHRNLPTLEEYDSYWWLGGLVICSLLTLIVIFYYLGLLCGVCGYDRHATPTTRGCVSNTGGVFLMVGVGLSFLFCWILMIIVVLTFVFGANVEKLICEPYTSKELFRVLDTPYLLNEDWEYYLSGKLFNKSKMKLTFEQVYSDCKKNRGTYGTLHLQNSFNISEHLNINEHTGSISSELESLKVNLNIFLLGAAGRKNLQDFAACGIDRMNYDSYLAQTGKSPAGVNLLSFAYDLEAKANSLPPGNLRNSLKRDAQTIKTIHQQRVLPIEQSLSTLYQSVKILQRTGNGLLERVTRILASLDFAQNFITNNTSSVIIEETKKYGRTIIGYFEHYLQWIEFSISEKVASCKPVATALDTAVDVFLCSYIIDPLNLFWFGIGKATVFLLPALIFAVKLAKYYRRMDSEDVYDDVETIPMKNMENGNNGYHKDHVYGIHNPVMTSPSQH
no change: localisation_or_trafficking [1] | localisation_or_trafficking [2] | expression_or_secretion [3]

B4: CD133 (prominin-1): N220Q (protein)
parent chain: MALVLGSLLLLGLCGNSFSGGQPSSTDAPKAWNYELPATNYETQDSHKAGPIGILFELVHIFLYVVQPRDFPEDTLRKFLQKAYESKIDYDKPETVILGLKIVYYEAGIILCCVLGLLFIILMPLVGYFFCMCRCCNKCGGEMHQRQKENGPFLRKCFAISLLVICIIISIGIFYGFVANHQVRTRIKRSRKLADSNFKDLRTLLNETPEQIKYILAQYNTTKDKAFTDLNSINSVLGGGILDRLRPNIIPVLDEIKSMATAIKETKEALENMNSTLKSLHQQSTQLSSSLTSVKTSLRSSLNDPLCLVHPSSETCNSIRLSLSQLNSNPELRQLPPVDAELDNVNNVLRTDLDGLVQQGYQSLNDIPDRVQRQTTTVVAGIKRVLNSIGSDIDNVTQRLPIQDILSAFSVYVNNTESYIHRNLPTLEEYDSYWWLGGLVICSLLTLIVIFYYLGLLCGVCGYDRHATPTTRGCVSNTGGVFLMVGVGLSFLFCWILMIIVVLTFVFGANVEKLICEPYTSKELFRVLDTPYLLNEDWEYYLSGKLFNKSKMKLTFEQVYSDCKKNRGTYGTLHLQNSFNISEHLNINEHTGSISSELESLKVNLNIFLLGAAGRKNLQDFAACGIDRMNYDSYLAQTGKSPAGVNLLSFAYDLEAKANSLPPGNLRNSLKRDAQTIKTIHQQRVLPIEQSLSTLYQSVKILQRTGNGLLERVTRILASLDFAQNFITNNTSSVIIEETKKYGRTIIGYFEHYLQWIEFSISEKVASCKPVATALDTAVDVFLCSYIIDPLNLFWFGIGKATVFLLPALIFAVKLAKYYRRMDSEDVYDDVETIPMKNMENGNNGYHKDHVYGIHNPVMTSPSQH
no change: localisation_or_trafficking [1] | localisation_or_trafficking [2] | expression_or_secretion [3]

B5: CD133 (prominin-1): N580Q (protein)
parent chain: MALVLGSLLLLGLCGNSFSGGQPSSTDAPKAWNYELPATNYETQDSHKAGPIGILFELVHIFLYVVQPRDFPEDTLRKFLQKAYESKIDYDKPETVILGLKIVYYEAGIILCCVLGLLFIILMPLVGYFFCMCRCCNKCGGEMHQRQKENGPFLRKCFAISLLVICIIISIGIFYGFVANHQVRTRIKRSRKLADSNFKDLRTLLNETPEQIKYILAQYNTTKDKAFTDLNSINSVLGGGILDRLRPNIIPVLDEIKSMATAIKETKEALENMNSTLKSLHQQSTQLSSSLTSVKTSLRSSLNDPLCLVHPSSETCNSIRLSLSQLNSNPELRQLPPVDAELDNVNNVLRTDLDGLVQQGYQSLNDIPDRVQRQTTTVVAGIKRVLNSIGSDIDNVTQRLPIQDILSAFSVYVNNTESYIHRNLPTLEEYDSYWWLGGLVICSLLTLIVIFYYLGLLCGVCGYDRHATPTTRGCVSNTGGVFLMVGVGLSFLFCWILMIIVVLTFVFGANVEKLICEPYTSKELFRVLDTPYLLNEDWEYYLSGKLFNKSKMKLTFEQVYSDCKKNRGTYGTLHLQNSFNISEHLNINEHTGSISSELESLKVNLNIFLLGAAGRKNLQDFAACGIDRMNYDSYLAQTGKSPAGVNLLSFAYDLEAKANSLPPGNLRNSLKRDAQTIKTIHQQRVLPIEQSLSTLYQSVKILQRTGNGLLERVTRILASLDFAQNFITNNTSSVIIEETKKYGRTIIGYFEHYLQWIEFSISEKVASCKPVATALDTAVDVFLCSYIIDPLNLFWFGIGKATVFLLPALIFAVKLAKYYRRMDSEDVYDDVETIPMKNMENGNNGYHKDHVYGIHNPVMTSPSQH
no change: localisation_or_trafficking [1] | localisation_or_trafficking [2] | expression_or_secretion [3]

B6: CD133 (prominin-1): N414Q (protein)
parent chain: MALVLGSLLLLGLCGNSFSGGQPSSTDAPKAWNYELPATNYETQDSHKAGPIGILFELVHIFLYVVQPRDFPEDTLRKFLQKAYESKIDYDKPETVILGLKIVYYEAGIILCCVLGLLFIILMPLVGYFFCMCRCCNKCGGEMHQRQKENGPFLRKCFAISLLVICIIISIGIFYGFVANHQVRTRIKRSRKLADSNFKDLRTLLNETPEQIKYILAQYNTTKDKAFTDLNSINSVLGGGILDRLRPNIIPVLDEIKSMATAIKETKEALENMNSTLKSLHQQSTQLSSSLTSVKTSLRSSLNDPLCLVHPSSETCNSIRLSLSQLNSNPELRQLPPVDAELDNVNNVLRTDLDGLVQQGYQSLNDIPDRVQRQTTTVVAGIKRVLNSIGSDIDNVTQRLPIQDILSAFSVYVNNTESYIHRNLPTLEEYDSYWWLGGLVICSLLTLIVIFYYLGLLCGVCGYDRHATPTTRGCVSNTGGVFLMVGVGLSFLFCWILMIIVVLTFVFGANVEKLICEPYTSKELFRVLDTPYLLNEDWEYYLSGKLFNKSKMKLTFEQVYSDCKKNRGTYGTLHLQNSFNISEHLNINEHTGSISSELESLKVNLNIFLLGAAGRKNLQDFAACGIDRMNYDSYLAQTGKSPAGVNLLSFAYDLEAKANSLPPGNLRNSLKRDAQTIKTIHQQRVLPIEQSLSTLYQSVKILQRTGNGLLERVTRILASLDFAQNFITNNTSSVIIEETKKYGRTIIGYFEHYLQWIEFSISEKVASCKPVATALDTAVDVFLCSYIIDPLNLFWFGIGKATVFLLPALIFAVKLAKYYRRMDSEDVYDDVETIPMKNMENGNNGYHKDHVYGIHNPVMTSPSQH
no change: localisation_or_trafficking [1] | localisation_or_trafficking [2] | expression_or_secretion [3]

From publication PMC4653032
